Laboratory results reported in IntAct's records for PubMed 17632125.

B1: UBP3-associated protein BRE5 (Saccharomyces cerevisiae), P53741 (parent)
chain: MGVTVQDICFAFLQNYYERMRTDPSKLAYFYASTAELTHTNYQSKSTNEKDDVLPTVKVTGRENINKFFSRNDAKVRSLKLKLDTIDFQYTGHLHKSILIMATGEMFWTGTPVYKFCQTFILLPSSNGSTFDITNDIIRFISNSFKPYVLTDASLSQSNEENSVSAVEEDKIRHESGVEKEKEKEKSPEISKPKAKKETVKDTTAPTESSTQEKPIVDHSQPRAIPVTKESKIHTETVPSSTKGNHKQDEVSTEELGNVTKLNEKSHKAEKKAAPIKTKEGSVEAINAVNNSSLPNGKEVSDEKPVPGGVKEAETEIKPIEPQVSDAKESGNNASTPSSSPEPVANPPKMTWASKLMNENSDRISKNNTTVEYIRPETLPKKPTERKFEMGNRRDNASANSKNKKKPVFSTVNKDGFYPIYIRGTNGLREEKLRSALEKEFGKVMRITAADNFAVVDFETQKSQIDALEKKKKSIDGIEVCLERKTVKKPTSNNPPGIFTNGTRSHRKQPLKRKD
partner: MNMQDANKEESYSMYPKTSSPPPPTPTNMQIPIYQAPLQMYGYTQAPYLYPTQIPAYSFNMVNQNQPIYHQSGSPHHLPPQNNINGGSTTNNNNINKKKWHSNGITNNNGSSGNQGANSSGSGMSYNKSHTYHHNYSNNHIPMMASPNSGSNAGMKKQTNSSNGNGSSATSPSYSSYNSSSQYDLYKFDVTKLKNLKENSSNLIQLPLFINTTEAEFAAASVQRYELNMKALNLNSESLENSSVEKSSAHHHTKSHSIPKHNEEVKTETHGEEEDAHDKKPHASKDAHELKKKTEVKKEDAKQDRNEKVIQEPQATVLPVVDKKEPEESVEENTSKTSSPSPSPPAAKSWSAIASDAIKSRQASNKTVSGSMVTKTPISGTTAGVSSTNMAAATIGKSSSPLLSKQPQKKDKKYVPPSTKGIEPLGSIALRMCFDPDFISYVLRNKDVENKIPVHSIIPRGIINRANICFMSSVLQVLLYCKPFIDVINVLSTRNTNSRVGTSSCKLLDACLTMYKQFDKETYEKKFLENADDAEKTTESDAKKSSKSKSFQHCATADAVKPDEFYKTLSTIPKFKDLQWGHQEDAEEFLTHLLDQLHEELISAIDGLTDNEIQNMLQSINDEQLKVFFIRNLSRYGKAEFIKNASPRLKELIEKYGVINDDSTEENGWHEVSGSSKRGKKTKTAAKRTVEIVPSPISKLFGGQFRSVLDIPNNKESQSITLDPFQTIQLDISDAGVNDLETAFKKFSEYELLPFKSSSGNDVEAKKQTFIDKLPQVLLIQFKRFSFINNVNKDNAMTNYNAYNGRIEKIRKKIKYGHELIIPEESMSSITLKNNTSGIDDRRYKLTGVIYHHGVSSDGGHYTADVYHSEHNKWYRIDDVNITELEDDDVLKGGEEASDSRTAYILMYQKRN
B2: Ubiquitin carboxyl-terminal hydrolase 3 (Saccharomyces cerevisiae), Q01477 (parent)
chain: B1 partner
partner: B1 chain

Variants of: B1
Conditions: with ubp3_yeast UBP3, Q01477

Row | effect of a mutation on the interaction | Variant
1 | decreasing interaction strength | Y17A;K82A

Variants of: B1
Conditions: with ubp3_yeast UBP3, Q01477
Remark: another data set of the same source

Row | effect of a mutation on the interaction | Variant
2 | with no effect | K80A
3 | with no effect | Y17A
4 | with no effect | E105A
5 | with no effect | K82A

Variants of: B2
Conditions: with bre5_yeast BRE5, P53741

Row | effect of a mutation on the interaction | Variant
6 | with no effect | T212A
7 | with no effect | F209A
8 | decreasing interaction strength | N211A;F217A
9 | with no effect | E214A
10 | with no effect | F217A
11 | decreasing interaction strength | N211A
12 | decreasing interaction strength | L208A;F209A;I210A;N211A
13 | disrupting interaction strength | L208A;F209A;I210A;N211A;F217A
14 | decreasing interaction strength | I210A
15 | with no effect | L208A
16 | with no effect | E216A
17 | decreasing interaction strength | I210A;F217A
18 | with no effect | R224A
19 | decreasing interaction strength | L208A;F209A
